Consider 11 molecules from PMC12501149 (Proceedings of the National Academy of Sciences of the …, 2025).

In experiment [1] the target is TcdB 1285-1804 with C-terminal Avitag (RBD toxin fragment) (C. difficile, UniProt P18177 1285-1804). The experiment is described as follows: SPR. The note with it: both partners purified.
For experiment [2], the target named is T1, biotinylated RBD of TcsL (Paeniclostridium sordellii, UniProt Q46342 1-2364). The experiment in a line: SPR. As to conditions: both partners purified.
Experiment [3] concerns the target T1, biotinylated RBD of TcsL. The experiment is described as follows: SPR. As to conditions: both partners purified. This is another data set of the same source.
A further experiment deals with full length TcdB (C. difficile, UniProt P18177 1-2366). The experiment is described as follows: SPR. As to conditions: both partners purified.
The target in experiment [4] is T1, biotinylated RBD of TcsL. The experiment is described as follows: SPR. The note with it: both partners purified. This is another data set of the same source.
Another experiment deals with TcdB2 (TcdB 027) (C. difficile). The experiment in a line: cell-based or functional assay.

Changes are numbered by the printed parent chain.

T1 sequence (Q46342 whole entry): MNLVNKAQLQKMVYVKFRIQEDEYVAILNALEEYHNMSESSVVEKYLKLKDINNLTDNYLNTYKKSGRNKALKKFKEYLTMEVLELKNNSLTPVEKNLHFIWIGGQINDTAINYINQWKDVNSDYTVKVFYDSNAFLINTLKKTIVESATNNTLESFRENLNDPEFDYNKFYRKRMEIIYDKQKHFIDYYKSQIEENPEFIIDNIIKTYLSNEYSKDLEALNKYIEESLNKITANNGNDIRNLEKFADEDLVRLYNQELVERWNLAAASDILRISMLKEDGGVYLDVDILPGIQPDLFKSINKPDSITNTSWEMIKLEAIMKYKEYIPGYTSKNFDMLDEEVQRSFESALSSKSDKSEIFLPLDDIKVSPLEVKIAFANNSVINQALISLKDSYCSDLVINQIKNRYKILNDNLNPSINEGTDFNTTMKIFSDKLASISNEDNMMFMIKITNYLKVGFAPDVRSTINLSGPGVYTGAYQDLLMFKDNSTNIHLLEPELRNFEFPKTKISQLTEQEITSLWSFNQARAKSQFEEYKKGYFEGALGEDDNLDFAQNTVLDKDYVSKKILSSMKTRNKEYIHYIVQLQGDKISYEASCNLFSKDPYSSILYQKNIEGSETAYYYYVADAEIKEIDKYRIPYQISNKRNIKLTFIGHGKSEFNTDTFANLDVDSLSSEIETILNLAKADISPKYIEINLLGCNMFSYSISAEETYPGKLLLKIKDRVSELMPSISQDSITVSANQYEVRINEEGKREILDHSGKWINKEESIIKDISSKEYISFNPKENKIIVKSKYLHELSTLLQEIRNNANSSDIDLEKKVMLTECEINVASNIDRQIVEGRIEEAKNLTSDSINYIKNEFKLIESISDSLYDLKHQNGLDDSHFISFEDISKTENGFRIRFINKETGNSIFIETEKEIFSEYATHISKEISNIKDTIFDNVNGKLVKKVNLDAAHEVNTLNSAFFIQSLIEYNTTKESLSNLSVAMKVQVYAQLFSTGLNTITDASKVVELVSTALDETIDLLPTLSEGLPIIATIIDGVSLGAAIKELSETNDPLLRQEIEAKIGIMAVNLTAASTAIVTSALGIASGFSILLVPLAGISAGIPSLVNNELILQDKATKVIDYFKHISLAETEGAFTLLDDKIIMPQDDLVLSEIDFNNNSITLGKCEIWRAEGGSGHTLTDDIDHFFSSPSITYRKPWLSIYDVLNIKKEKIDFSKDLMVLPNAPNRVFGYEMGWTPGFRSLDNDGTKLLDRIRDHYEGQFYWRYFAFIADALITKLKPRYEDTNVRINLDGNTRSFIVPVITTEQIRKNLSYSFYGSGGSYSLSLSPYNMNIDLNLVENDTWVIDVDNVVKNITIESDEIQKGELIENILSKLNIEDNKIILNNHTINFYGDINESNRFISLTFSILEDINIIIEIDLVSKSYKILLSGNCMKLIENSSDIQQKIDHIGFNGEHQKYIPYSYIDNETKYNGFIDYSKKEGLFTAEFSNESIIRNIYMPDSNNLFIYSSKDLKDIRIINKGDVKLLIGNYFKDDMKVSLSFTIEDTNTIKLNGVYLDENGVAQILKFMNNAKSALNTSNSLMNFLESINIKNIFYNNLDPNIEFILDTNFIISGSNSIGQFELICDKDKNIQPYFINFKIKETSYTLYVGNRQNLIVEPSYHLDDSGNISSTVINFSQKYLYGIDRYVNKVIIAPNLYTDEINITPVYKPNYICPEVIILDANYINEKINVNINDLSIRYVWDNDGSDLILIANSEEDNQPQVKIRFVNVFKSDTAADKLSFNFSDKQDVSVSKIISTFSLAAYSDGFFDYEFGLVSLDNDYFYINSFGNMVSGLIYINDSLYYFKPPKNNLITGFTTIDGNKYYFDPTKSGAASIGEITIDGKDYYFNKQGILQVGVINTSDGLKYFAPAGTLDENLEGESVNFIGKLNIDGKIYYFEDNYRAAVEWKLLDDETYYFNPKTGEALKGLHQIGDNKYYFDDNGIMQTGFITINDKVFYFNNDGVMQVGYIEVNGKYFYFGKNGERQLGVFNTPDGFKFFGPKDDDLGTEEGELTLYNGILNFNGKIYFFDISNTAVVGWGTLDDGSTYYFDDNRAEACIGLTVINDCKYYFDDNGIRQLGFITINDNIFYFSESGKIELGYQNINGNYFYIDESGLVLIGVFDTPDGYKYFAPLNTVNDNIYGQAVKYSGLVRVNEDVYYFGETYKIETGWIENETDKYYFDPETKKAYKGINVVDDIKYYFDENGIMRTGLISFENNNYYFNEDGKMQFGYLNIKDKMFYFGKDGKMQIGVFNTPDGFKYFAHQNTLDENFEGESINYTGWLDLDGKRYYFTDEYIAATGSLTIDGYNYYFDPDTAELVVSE
Chain of TcdB 1285-1804 with C-terminal Avitag (RBD toxin fragment) (P18177 1285-1804): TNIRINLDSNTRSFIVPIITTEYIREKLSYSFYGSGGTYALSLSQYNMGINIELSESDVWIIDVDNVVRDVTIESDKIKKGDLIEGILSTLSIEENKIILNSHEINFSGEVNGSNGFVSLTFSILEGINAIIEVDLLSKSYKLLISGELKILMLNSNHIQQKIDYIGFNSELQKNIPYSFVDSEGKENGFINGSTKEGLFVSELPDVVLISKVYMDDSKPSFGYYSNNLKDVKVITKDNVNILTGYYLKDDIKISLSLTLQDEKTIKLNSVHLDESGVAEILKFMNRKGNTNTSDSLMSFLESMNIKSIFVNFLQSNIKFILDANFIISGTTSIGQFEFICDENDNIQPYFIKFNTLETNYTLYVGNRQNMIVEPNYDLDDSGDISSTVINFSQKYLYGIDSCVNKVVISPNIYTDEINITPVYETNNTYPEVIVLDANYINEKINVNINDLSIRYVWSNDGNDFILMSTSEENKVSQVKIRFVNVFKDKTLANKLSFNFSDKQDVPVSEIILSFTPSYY

B1: fzd24 (designed binder)
chain: GEKSKLELLCKMLLTKAKLTGKQKYKNDLKELIEYLNEKGYPDLAKEASAKLEEI
Consider B1, for which, in experiment [1], the Kd turned out to be 15.3 pM, the koff came to 0.000649 s⁻¹ and the kon turned out to be 4.24e+07 M⁻¹ s⁻¹.

B2: fzd13 (designed binder)
chain: AEKEVQELIDKALNTPDPKVASKYIISAVYVAAKARDPSLFQSALDTAKKL
In experiment [1], B2 displayed a Kd of 5.55 pM, a koff of 0.00014 s⁻¹ and a kon of 2.53e+07 M⁻¹ s⁻¹.

B3: F4 (designed binder)
chain: NEELIKEIKKLLKEGKPASEILELLKKAGKEEIAKEAEKAALSSYDMTKAAAEEAIKKLK
For B3, in the experiment with biotinylated RBD of TcsL [2], binding was put at a Kd of 4280 pM, the koff stood at 0.00928 s⁻¹ and the kon stood at 2.17e+06 M⁻¹ s⁻¹. In addition, the Kd in the experiment with biotinylated RBD of TcsL [3] worked out at 4230 pM.

B4: B4 (designed binder)
chain: TEEIIKEIKKMKEKGEKASSIIDLLKKAGYSEIAKKAELAALKSENMTEAAAEKAIEELK
In the experiment with biotinylated RBD of TcsL [2], B4 came in with a Kd of 56.9 pM, a koff of 0.000112 s⁻¹ and a kon of 1.98e+06 M⁻¹ s⁻¹.

B5: cspg4 (designed binder)
chain: ENKLARAVVTVNKSWLATQLFVRLYRLCKAGDPRCEEVAEKLRKVLELQGVPETDIELVVEVAKG
Regarding B5, in the experiment with full length TcdB, binding was put at a Kd of 1980 pM, the koff came to 0.0378 s⁻¹ and the kon turned out to be 1.91e+07 M⁻¹ s⁻¹.

B6: ss2cspg18 (designed binder)
chain: MDEKVEKLKECLEKLKEKGDIKGVIDTERAIRICERSRHKEFCEWAIEKCENRIKES
notes: also called c18; dual disulfide version of cspg18
In the experiment with full length TcdB, B6 showed a Kd of 865 pM, a koff of 0.00164 s⁻¹ and a kon of 1.9e+06 M⁻¹ s⁻¹.

B7: ss2cspg27 (designed binder)
chain: B6 chain with K4L, I25T, R29K, K49A, N52A
notes: also called c27; dual disulfide version of cspg27
In the case of B7, in the experiment with full length TcdB, the Kd is 507 pM, the koff was 0.000101 s⁻¹ and the kon worked out at 199000 M⁻¹ s⁻¹.

B8: ss2cspg35 (designed binder)
chain: B6 chain with K4L, I21L, I25K, N52A
notes: also called dual disulfide version of cspg35
In the experiment with full length TcdB, B8 yielded a Kd of 480 pM, a koff of 8.03e-05 s⁻¹ and a kon of 167000 M⁻¹ s⁻¹.

B9: B4-M79 (designed binder)
chain: TEEIIKEIKKMKEKGEKASSIIDLLKKAGYSEIAKKAELAALKSENMTEAAAEKAIEELKGSQVKLEESGGGLVQAGGSLKLSCAASGSTFSSSSVGWYRQAPGQQRELVAAITSGGSTNTADSVKGRFTMSRDNAKNTVYLQMRDLKPEDTAVYYCNVAGRNWVPISRYSPGPYWGQGTQVTVSS
For B9, the Kd with biotinylated RBD of TcsL [4] stood at 9.9 pM.

B10: cspg67 (designed binder)
chain: AEELAKKLEEMAEVFKEKGDEEGAKECLKAAKIVRRSKNEEFGKWCIKKAEERLKKL
In the experiment with full length TcdB, B10 gave a Kd of 1950 pM, a koff of 0.00387 s⁻¹ and a kon of 1.99e+06 M⁻¹ s⁻¹. For the same molecule, the “IC50 of neutralization of TcdB2 in WT Vero cells (CSPG4-dependent entry), Figure S7B; 8-step 3-fold dilution series starting at 40 nM; mean across 2 independent replicates” value in the experiment with TcdB2 (TcdB 027) came out at 1000 pM.

B11: fzd48 (designed binder)
chain: KEELEKMIEELKKLIENGDKENFIKLFDEAFKKAKESRDPRTIASVWTLVLEFKNKN
B11: in experiment [1], the Kd was 0.00975 pM, the koff was 3.33e-07 s⁻¹ and the kon stood at 3.42e+07 M⁻¹ s⁻¹.

By Kd is commonly meant the free concentration of one partner at which half of the binding sites on the other are occupied at equilibrium, for simple one-to-one binding. Read a low Kd as tighter binding. The term koff denotes a measure of how fast the partners let go of each other. By kon is commonly meant the second-order rate constant of association. A higher kon goes with faster complex formation.
